± gives the uncertainty stated by the source.
Assay: amyloid nucleation score (Sup35N fusion, yeast selection) (log enrichment); library NNK3; higher = more nucleation; inactive = no reads after selection
Procedure, shortened: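 Plasmid inserts were Illumina-sequenced at input and output from psi-negative yeast expressing Sup35N fused to peptides of 20 random codons. The yeast were induced with 100 μM copper sulfate for 24 hours and grown 7 days at 30°C on medium lacking adenine and uracil, and sequences with under 100 input reads were excluded. Nucleation score is the DiMSum log enrichment of output over input reads, centred on the mode score of non-aggregating sequences.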

| Substance | amyloid nucleation score |
| --- | --- |
| TLIFFDKDYYCGVRQMWNVG | inactive |
| TLIRRVYVRRFYTGIEVGST | inactive |
| TLLDVPRSRLWSKFWLCVQL | inactive |
| TLLFSIYCIFLNPSVQRRFE | -0.028 ± 0.43 |
| TLLPLQMFTNHWALMPSSHR | 0.125 ± 0.9 |
| TLLRLHQVAY | inactive |
| TLLVCNMWNFSRNIMVHIGV | inactive |
| TLLYERNEYVVRNTYWDICL | inactive |
| TLLYTI | inactive |
| TLNVVPR | inactive |
| TLSCDRKNCVVHCFLIQRFL | inactive |
| TLSCTKVTP | inactive |
| TLSIEMGQLDRERVGLNCKR | inactive |
| TLSVLFSVSAAAFGVHRIQD | 1.09 ± 0.21 |
| TLSYRMFINKPSGMMCEHFN | 1.05 ± 0.11 |
| TLVRTDPRGTVSPPTFPCEW | inactive |
| TMCCACVFLSSSGWEFNYGL | 2.35 ± 0.081 |
| TMKIMFVEPWKCRAAFQL | inactive |
| TMNAICLNPVS | inactive |
| TMSLFTTSVCCWTKGAIRHS | inactive |
| TMVFILQMLV | 1.47 ± 0.097 |
| TMVYPKIPGGRTLAWDMTGR | inactive |
| TNANFATDSHFLVITE | inactive |

| Substance | amyloid nucleation score |
| --- | --- |
| TNIYKARL | inactive |
| TNKRTYFWVF | 1.02 ± 0.097 |
| TNLACWVTFCPNCMMLDYLG | 2.21 ± 0.064 |
| TNNTKERYIHLSFMTKWWTF | inactive |
| TNQALTMNCHPG | inactive |
| TNTFYDHTNFMIVGLVPVRY | inactive |
| TNYRYSFGISYS | inactive |
| TPDFVRSRKMNWVAIKKRAE | inactive |
| TPFSCEYNIMWESRGGDWSR | inactive |
| TPFTFGCHRLLQHKYCNSDV | inactive |
| TPKFLSMLIRTHSSPVRTHL | inactive |
| TPLGSQLALESDFFYTPNRC | inactive |
| TPMWMGT | inactive |
| TPSRREMDVCVFFSPFAMHM | 0.896 ± 0.095 |
| TPYVTGTTEAVKMQHRCNVD | -0.188 ± 0.87 |
| TQDCG | inactive |
| TQLNTFYSVITSSFMIDFC | inactive |
| TQNGVCYRNPVFYGRRARKL | inactive |
| TQNNNGRVETPGASTPKHPC | inactive |
| TQWYS | inactive |
| TRFLCSGV | inactive |
| TRITMASSREV | inactive |
| TRLGYKKGFFMTSSSHRLMV | inactive |

| Substance | amyloid nucleation score |
| --- | --- |
| TRNPDKLCANVLDNRH | inactive |
| TRPGLKWWVLRRMRHFGRRV | inactive |
| TRVLSINRNTPANRLIGVGC | inactive |
| TRVSWTFGINTSSGPSALHL | 0.995 ± 0.13 |
| TRWSVFKLRADDRNMQASKS | inactive |
| TSDIDIY | -0.397 ± 0.73 |
| TSFFNNFSLLFVLVWNVLRG | inactive |
| TSGHVVTMEHRLLYVPTIGF | inactive |
| TSGKGFYMLSVGVRVYQWDI | inactive |
| TSHPYNHVESSG | 0.972 ± 0.095 |
| TSKLRQCGFL | inactive |
| TSLFGIPQCRFRVRSWNDVV | inactive |
| TSLGFSLSSSTDAFVEKFEG | 1.56 ± 0.077 |
| TSLSRHTIPYNHVLYSTWW | inactive |
| TSLWRLL | inactive |
| TSMRKSACSWTLFSLR | inactive |
| TSTGYNPIYYIMMFN | 0.677 ± 0.32 |
| TSTHCIIWLGRSDRRREMQL | -0.752 ± 1.9 |
| TSVNVWFPFLGVREGFGCSP | 1.37 ± 0.15 |
| TTCAVCRCIRGAMFNGSVSK | inactive |
| TTCFTHGKLPNIRAWSIWTQ | inactive |
| TTEDLSVG | inactive |
| TTFNRFVYPYGERYLG | inactive |

| Substance | amyloid nucleation score |
| --- | --- |
| TVGGFAWLDNSLSDRMFDTS | inactive |
| TVICELRNMRYS | 1.81 ± 0.087 |
| TVIKPWLLICCDLFREVGFA | 1.12 ± 0.14 |
| TVIRRLYCLNGLVANTSFAV | inactive |
| TVKYHGSPCVLHDLLIVERR | inactive |
| TVLLIGNMWTYWAYMQCSWG | inactive |
| TVRGYRLAHYIAAGYSCMSR | inactive |
| TVSGNKYISDRVQN | inactive |
| TVSIRIINT | 0.15 ± 0.66 |
| TVSKCSERRVCTPGDSCVAC | inactive |
| TVVDLVIFG | inactive |
| TVVVGLVGF | 0.825 ± 0.2 |
| TWCAHS | inactive |
| TWKQDWDNFSYVLNSSSHST | inactive |
| TWLFFRNHTQAFCSYLAHWG | inactive |
| TWLIGHGAVIVRLYNFYMAI | inactive |
| TWQVVNSPYPMRNIPYRSRW | inactive |
| TWSMNIIMCLNRQVDQGFSL | 1.82 ± 0.075 |
| TWVVYFVVRMCVQGSVYSMA | inactive |
| TWWSLGSVELVLWFKSCCDF | 1.44 ± 0.083 |
| TWWWDTKLVRRPCSRGWVTC | inactive |
| TWYRCD | inactive |
| TYCSYTL | inactive |

| Substance | amyloid nucleation score |
| --- | --- |
| TYEGITVVTFVSYSYAIREP | 0.703 ± 0.096 |
| TYFYSIIYYIYGYVFLRRAY | -0.346 ± 0.8 |
| TYLCFYTKRPDAVYWSTLDH | inactive |
| TYMFMVAYNVSTRPRKLLNC | inactive |
| TYMPAVIIYRVLQAMTAAHH | inactive |
| TYRSTLSVSMAVRGSEMLD | -0.085 ± 1 |
| TYVGV | inactive |
| TYVRIGVCGVLWFCTFFTQC | inactive |
| VACHRS | inactive |
| VADRVSSK | inactive |
| VAEEHSVLSCQDADFCASSL | inactive |
| VAFTLDGKARDKYRNGDHNK | inactive |
| VAFTLIVRFCS | inactive |
| VAIGYIASVLK | inactive |
| VALAVMQKLNMRYIYNPCFV | inactive |
| VAMVSGIG | inactive |
| VARISYLEIHNGETNFTYWF | 2.47 ± 0.062 |
| VARNGDLF | inactive |
| VASVWLDIPMYLFSQLRTKT | inactive |
| VATHTSASHLRS | inactive |
| VAYRTGSDG | inactive |
| VCAGNTDPWSQELIPYRKC | inactive |
| VCASIGCRTGD | inactive |

| Substance | amyloid nucleation score |
| --- | --- |
| VCDTM | inactive |
| VCFFRVKRSYSNIFYTRRCR | inactive |
| VCFNYDLFYMIRMGFEAVHI | inactive |
| VCGIYYVFLAGWEHKSRSKE | 1.86 ± 0.089 |
| VCGNMVSLVVHPFLFSYVCD | inactive |
| VCIRTFLSLVSDCNACWSQL | inactive |
| VCLLNWFWIYDQYVRQLTVV | inactive |
| VCLWTVDLRIVTEGLGSHRG | inactive |
| VCVKPLCFLAHMYGKC | inactive |
| VCYDVCGRGWTCQY | -0.011 ± 0.42 |
| VCYVKYSSLLCMNLGIRHRT | inactive |
| VDDIPYRFKTIKTTG | inactive |
| VDFYLR | inactive |
| VDHSLVWDHWTLRDIPCKTG | inactive |
| VDLWYIFGPSPYATCFVLLV | inactive |
| VDQHGFATKGPVLSKVIGHS | inactive |
| VDRDSWSVPFCALQKHRMQK | inactive |
| VDRVT | inactive |
| VDTILSNKVYVRAPPKRGSK | inactive |
| VEALILSVRKCVFGLPVPAL | inactive |
| VECSIVLCII | 2.26 ± 0.051 |
| VEKCKLLFVTTHECLCHCSR | inactive |
| VETSCGRMHVLHLTGSGYSM | inactive |

| Substance | amyloid nucleation score |
| --- | --- |
| VFAFTKMESRFLLGLRVDEY | 0.729 ± 0.15 |
| VFETEKLSHFKCEVLDCQ | inactive |
| VFFETNVMGQEWYGGHVKR | inactive |
| VFHRSSLNSSRAGWH | inactive |
| VFKFVLLSLYMFQWGNAFPM | inactive |
| VFLKTVAKQFCLANVKRSH | inactive |
| VFLNWRGMNHSLRAFNIESQ | inactive |
| VFLPGRSIKWFLMAEKLRNH | inactive |
| VFLSCSCRWMVYGYNLTADC | inactive |
| VFLSWCAGSKGFSGVCRI | 0.6 ± 0.2 |
| VFMCLANYMFPIPGNRHVPP | 0.053 ± 0.75 |
| VFPPEMRVFPLFCW | inactive |
| VFSFDMLHRLG | 1.53 ± 0.099 |
| VFSFRTYNLYGEDNEQLLHW | inactive |
| VFVKLQHVGMSLGSFFPGSM | 0.85 ± 0.19 |
| VFVSS | -0.36 ± 1 |
| VFVVLLALSYGSDNTV | inactive |
| VFWLRYMNVSRANARGNAS | inactive |
| VGCIRGNGFVTQQATGY | inactive |
| VGIALASIK | inactive |
| VGILLFFYLTNVEQAVTFVR | inactive |
| VGNEECIYQIRFFLRLSGSL | inactive |

Source: the supplement of paper PMC12042874
